Reference: publication PMC5737477

What was measured:
[1] = target: RAGE (full-length, recombinant) (UniProt Q62151 1-402); assay: EMSA
[2] = target: RAGE (full-length, recombinant);MRE11 (Mus musculus?;, UniProt Q62151;P49959 1-402;1-708, |); assay: EMSA
Chain of RAGE (full-length, recombinant);MRE11 (Q62151 whole entry, chain 1 of 2): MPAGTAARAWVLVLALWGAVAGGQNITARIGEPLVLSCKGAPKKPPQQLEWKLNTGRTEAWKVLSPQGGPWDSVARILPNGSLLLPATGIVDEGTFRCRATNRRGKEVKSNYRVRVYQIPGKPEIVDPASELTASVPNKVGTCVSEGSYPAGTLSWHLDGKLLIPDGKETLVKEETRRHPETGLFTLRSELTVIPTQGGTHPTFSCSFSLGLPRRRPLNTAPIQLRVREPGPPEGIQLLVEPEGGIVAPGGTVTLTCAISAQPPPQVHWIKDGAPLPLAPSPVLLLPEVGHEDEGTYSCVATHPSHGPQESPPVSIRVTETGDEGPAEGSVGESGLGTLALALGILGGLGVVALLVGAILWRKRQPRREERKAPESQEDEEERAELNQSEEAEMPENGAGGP
Chain of RAGE (full-length, recombinant);MRE11 (P49959 whole entry, chain 2 of 2): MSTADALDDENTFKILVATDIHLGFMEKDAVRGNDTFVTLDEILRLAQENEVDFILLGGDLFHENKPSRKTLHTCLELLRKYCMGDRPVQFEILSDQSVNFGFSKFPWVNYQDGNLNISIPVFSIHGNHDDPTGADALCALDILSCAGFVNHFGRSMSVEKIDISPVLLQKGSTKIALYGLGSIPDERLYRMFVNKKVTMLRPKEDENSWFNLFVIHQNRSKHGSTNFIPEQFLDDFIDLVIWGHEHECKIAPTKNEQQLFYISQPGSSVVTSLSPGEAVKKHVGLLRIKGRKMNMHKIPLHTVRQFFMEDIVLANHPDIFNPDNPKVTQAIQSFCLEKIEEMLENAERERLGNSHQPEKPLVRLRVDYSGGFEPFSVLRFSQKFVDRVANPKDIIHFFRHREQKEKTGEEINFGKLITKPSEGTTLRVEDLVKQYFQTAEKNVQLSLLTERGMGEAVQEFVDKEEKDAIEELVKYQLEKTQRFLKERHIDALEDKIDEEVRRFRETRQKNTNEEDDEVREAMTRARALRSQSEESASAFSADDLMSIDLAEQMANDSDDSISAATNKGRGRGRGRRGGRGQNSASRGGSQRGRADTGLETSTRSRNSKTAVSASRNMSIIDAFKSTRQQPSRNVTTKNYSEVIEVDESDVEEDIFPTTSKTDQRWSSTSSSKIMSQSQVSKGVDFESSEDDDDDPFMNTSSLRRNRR

Chain of RAGE (full-length, recombinant) (Q62151 whole entry): as the sequence (Q62151 whole entry, chain 1 of 2) above

B1: RAGE EM-F/EM-R 64mer dsDNA probe (dsDNA)
DNA 1: GGACTCCAGGTCCAGGACCGCCGTTTTTCGCGCGCACGGCGCGGGAGGTCCAGCTGGTCCACCTCC
DNA 2: GGAGGTGGACCAGCTGGACCTCCCGCGCCGTGCGCGCGAAAAACGGCGGTCCTGGACCTGGAGTCC
Q: Does B1 bind [1]?
A: Result: binds

Q: Does B1 bind [2]?
A: Result: binds
